From the supplement of paper PMC9112550, “Optimization of the antimicrobial peptide Bac7 by deep mutational scanning” (BMC Biology, 2022)

Test system: Escherichia coli TOP10
Experiment: shrunken log2 fold change of peptide-encoding DNA abundance (4.5 h post-induction vs induction); higher = less antimicrobial activity (less host growth inhibition)
Conditions: time post-induction: 4.5 h; library: site-saturation at positions 5, 18, 19, 20
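Also: peptides expressed intracellularly from a pBAD plasmid library in pooled LB shake-flask culture, induced with 0.3% L-arabinose, DNA abundance read by NGS, three biological replicates, DESeq2 with apeglm shrinkage.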

| Sequence | shrunken log2 fold change |
| --- | --- |
| RRIRKRPPRLPRPRPRPYYTPRP | -0.34 |
| RRIRSRPPRLPRPRPRPGGRPRP | 0.284 |
| RRIRIRPPRLPRPRPRPIECPRP | -0.314 |
| RRIRHRPPRLPRPRPRPKRDPRP | 0.158 |
| RRIRGRPPRLPRPRPRPVAGPRP | 1.12 |
| RRIRTRPPRLPRPRPRPYWPPRP | -0.424 |
| RRIRVRPPRLPRPRPRPDLSPRP | -0.011 |
| RRIRRRPPRLPRPRPRPARNPRP | 3.18 |
| RRIRFRPPRLPRPRPRPGHHPRP | -0.561 |
| RRIRNRPPRLPRPRPRPINWPRP | -0.133 |
| RRIRDRPPRLPRPRPRPFNKPRP | -1.45 |
| RRIRQRPPRLPRPRPRPCQRPRP | -0.0113 |
| RRIRGRPPRLPRPRPRPDTWPRP | 0.465 |
| RRIRGRPPRLPRPRPRPVPDPRP | 0.958 |
| RRIRQRPPRLPRPRPRPITMPRP | 0.00801 |
| RRIRLRPPRLPRPRPRPVHCPRP | -0.11 |
| RRIRKRPPRLPRPRPRPIGMPRP | 0.213 |
| RRIRIRPPRLPRPRPRPVFHPRP | -0.936 |
| RRIRDRPPRLPRPRPRPETKPRP | 0.0655 |
| RRIRTRPPRLPRPRPRPMPYPRP | -0.159 |
| RRIRMRPPRLPRPRPRPSRNPRP | 0.476 |
| RRIRMRPPRLPRPRPRPDPPPRP | 1.23 |
| RRIRVRPPRLPRPRPRPNEMPRP | 0.0222 |
| RRIRWRPPRLPRPRPRPSKEPRP | -0.267 |
| RRIRPRPPRLPRPRPRPHQQPRP | -0.14 |

| Sequence | shrunken log2 fold change |
| --- | --- |
| RRIRGRPPRLPRPRPRPNSKPRP | 0.0993 |
| RRIRGRPPRLPRPRPRPNCDPRP | 0.382 |
| RRIRYRPPRLPRPRPRPEYMPRP | -0.271 |
| RRIRNRPPRLPRPRPRPSPDPRP | 0.0143 |
| RRIRNRPPRLPRPRPRPRILPRP | -0.0548 |
| RRIRMRPPRLPRPRPRPGKDPRP | 0.0653 |
| RRIRGRPPRLPRPRPRPCFTPRP | 0.334 |
| RRIRGRPPRLPRPRPRPFDPPRP | 0.14 |
| RRIRIRPPRLPRPRPRPSGMPRP | -0.433 |
| RRIRIRPPRLPRPRPRPSHGPRP | 0.09 |
| RRIRPRPPRLPRPRPRPARLPRP | 0.00523 |
| RRIRYRPPRLPRPRPRPCTLPRP | 0.0191 |
| RRIRGRPPRLPRPRPRPTDGPRP | 0.361 |
| RRIRMRPPRLPRPRPRPPGFPRP | 0.619 |
| RRIRGRPPRLPRPRPRPVVAPRP | 1.19 |
| RRIRSRPPRLPRPRPRPVVWPRP | 0.462 |
| RRIRGRPPRLPRPRPRPQKTPRP | -0.0351 |
| RRIRSRPPRLPRPRPRPFCEPRP | -0.0573 |
| RRIRCRPPRLPRPRPRPKWFPRP | 0.0996 |
| RRIRVRPPRLPRPRPRPQCSPRP | -0.18 |
| RRIRCRPPRLPRPRPRPDWYPRP | -0.241 |
| RRIRPRPPRLPRPRPRPMGEPRP | -0.231 |
| RRIRPRPPRLPRPRPRPSTGPRP | -0.263 |
| RRIRKRPPRLPRPRPRPLINPRP | -0.149 |
| RRIRYRPPRLPRPRPRPINVPRP | -0.208 |

| Sequence | shrunken log2 fold change |
| --- | --- |
| RRIRSRPPRLPRPRPRPFPQPRP | -0.201 |
| RRIRQRPPRLPRPRPRPPVFPRP | 0.247 |
| RRIRYRPPRLPRPRPRPNGAPRP | -0.0032 |
| RRIRIRPPRLPRPRPRPGLTPRP | -0.0421 |
| RRIRGRPPRLPRPRPRPWGWPRP | 1.15 |
| RRIRERPPRLPRPRPRPMGGPRP | 0.0346 |
| RRIRMRPPRLPRPRPRPYHNPRP | -0.47 |
| RRIRSRPPRLPRPRPRPYRRPRP | -0.0841 |
| RRIRIRPPRLPRPRPRPMVQPRP | -0.0334 |
| RRIRHRPPRLPRPRPRPTWHPRP | -0.073 |
| RRIRERPPRLPRPRPRPNQCPRP | -0.00674 |
| RRIRFRPPRLPRPRPRPANSPRP | -0.448 |
| RRIRTRPPRLPRPRPRPVPYPRP | -0.0764 |
| RRIRPRPPRLPRPRPRPIAQPRP | 0.487 |
| RRIRPRPPRLPRPRPRPKEPPRP | 0.133 |
| RRIRVRPPRLPRPRPRPCAPPRP | -0.22 |
| RRIRPRPPRLPRPRPRPWFPPRP | -0.215 |
| RRIRYRPPRLPRPRPRPRCHPRP | -0.512 |
| RRIRTRPPRLPRPRPRPYWTPRP | 0.0389 |
| RRIRKRPPRLPRPRPRPHCVPRP | -0.0287 |
| RRIRKRPPRLPRPRPRPRTVPRP | 0.244 |
| RRIRDRPPRLPRPRPRPYIIPRP | -0.758 |
| RRIRVRPPRLPRPRPRPGRHPRP | 0.0728 |
| RRIRYRPPRLPRPRPRPLVMPRP | -0.372 |
| RRIRPRPPRLPRPRPRPMGIPRP | 0.21 |
